Data from the DeepSol protein solubility set.

Assay: soluble on expression in E. coli; label from the status in PepcDB or PDB records

| Sequence | soluble on expression in E. coli |
| --- | --- |
| MSKRVRSSLILPAVCGLGLAAVLLSSCSSKAPQQPARQAGISGPGDYSRPHRDGAPWWDVDVSRIPDAVPMPHNGSVKANPYTVLGKTYYPMNDARAYRMVGTASWYGTKFHGQATANGETYDLYGMTAAHKTLPLPSYVRVTNLDNGKSVIVRVNDRGPFYSDRVIDLSFAAAKKLGYAETGTARVKVEGIDPVQWWAQRGRPAPMVLAQPKQAVAQAAPAAAQTQAVAMAQPIETYTPPPAQHAAAVLPVQIDSKKNASLPADGLYLQVGAFANPDAAELLKAKLSGVTAAPVFISSVVRNQQILHRVRLGPIGSADEVSRTQDSIRVANLGQPTLVRPD | not soluble |
| MSKTAAITIDTPGADDFEPHRRHLYGLAYRMLGSWSEAEDIVQETWLRWREIDPATLDNARAFLSRIATRLCLDVLKSARVRRQVYVGPWLPEPLPDAQAYAGAAPGEIAHDVSVALMLALERLSASERAAFLLHDVFDVPFAEIAGTLGRTEAGCRQLAARARNRVRESRPRFAVEESEGIRLARAFIDAAQHGDVDVLRQLLADDAVLHSDGGGKKLAFMRPILGRANIVRAFAGLARKGQSDLSSVRIVQLNGMPAIYGIERDGLPRTISLGVCGGRIVRVYIMRNPDKLAHLARFTG | not soluble |
| MSKVALFAGGDLSYISRDFDYFVGIDRGSLFLLENGLPLNMAVGDFDSVSQKAFTDIKEKAELFITAHPEKNDTDTELALKEVFARFPEAEVTIFGAFGGRMDHLLSNIFLPSDPGIAPFMAQIALRDQQNMITYRPAGQHLIHQEEGMTYVAFMAEGEADLTITGAKFELTQDNFFKKKIYSSNAFIHQPITVSLPSGYLIIIQSKDWS | soluble |
| MSLADHIDAIKKEMTSLSSQFNSNKSELERSKQDLSSMQLQMQQQMNDSVQQDLQKAHDTSKKLDNLARTFLALITDPSQQSQLLAEFESISKNGTPQMPVMTPPMMNAVAAMQPHMMMRNPMLNAMGGASPRVSGKGGAPQNGGMNGMSMMQHMQMQAFQAQMMQAQMFQQMPMMMPGMVPGMPPGMAGLPGMMPPNNMAAAMQHFNAQMAAAASVAVSTPSRNPSTSGAASRTRTPLTTSATNSPRPTTEPTIKEEEPQTMEHDVAAAVAATTATATIKQEENSTVAVA | not soluble |
| MSLAEPVLGDDGLYQLDWYLQSFLDLKEDLEGATAKGKRFAILWGLKGCPYCKKLHDVHMRDPAIESYIRDNFEIVHLNHIGAREVTDFDGSKLSEKAFAQAYGIRFTPSLQFFPESADGLAAKKPQDREVARMPGLLEPPEFLAMFKYVREKGYQSMPFTDWLKREGHHHHHH | soluble |
| MSLAFVPHVPRHSRGDNPPSASTASPAVLTLTGERTIPDLDIENYWFRRHQVVYQRLAPRCTARDVLEAGCGEGYGADLIACVARQVIAVDYDETAVAHVRSRYPRVEVMQANLAELPLPDASVDVVVNFQVIEHLWDQARFVRECARVLRGSGLLMVSTPNRITFSPGRDTPINPFHTRELNADELTSLLIDAGFVDVAMCGLFHGPRLRDMDARHGGSIIDAQIMRAVAGEGHHHHHH | not soluble |
| MSLAGVSVGTVDRVIHNRGRVSEENRKKVQTILEMVHYQPNLMARSLASKKQYHFVAITPSFTHGEYWEAISDGIDKAASEMESYNITITKLFFDQYNNKTFDDIVRNLLDEKVDGVLIATLFTDSVIRLSQELDRNEIPYVYVDSNIEGQHQLAYFGTESYDAGVIAARLLTDKISSTSDILMARIIHSGKNDSNQGKNRREGFCHYLKETGFTGNLHEVELKINDSVYNFIKLDEIFEANATIEGGIIFNSTCYILGNYLKARGMQKVKLVGYDLIERNTQLLSDGVITALVAQRPERQGYDGIKSLCNHLLFKQNPEKVNLMPIDILLKENLKYYLNNKEGHHHHHH | soluble |
| MSLAHFSVLPPEINSLRMYLGAGSAPMLQAAAAWDGLAAELGTAASSFSSVTTGLTGQAWQGPASAAMAAAAAPYAGFLTTASAQAQLAAGQAKAVASVFEAAKAAIVPPAAVAANREAFLALIRSNWLGLNAPWIAAVESLYEEYWAADVAAMTGYHAGASQAAAQLPLPAGLQQFLNTLPNLGIGNQGNANLGGGNTGSGEGHHHHHH | not soluble |
| MSLAHKFDPSKIKKLDDPSRLELFDPEKVLKEFGLKEGMTVLDVGTGAGFYLPYLSKMVGEKGKVYAIDVQEEMVNYAWEKVNKLGLKNVEVLKSEENKIPLPDNTVDFIFMAFTFHELSEPLKFLEELKRVAKPFAYLAIIDWKKEERDKGPPPEEVYSEWEVGLILEDAGIRVGRVVEVGKYCFGVYAMIVKQEEENPLMNVPFKIPPGEGHHHHHH | soluble |
